Measurements from the domain aggregation screens of Martell et al. (2025).

Assay: soluble fraction after stress (log2 fold change); higher = more stays soluble; pooled small domains, quantitative proteomics
Conditions: stress: 50 degC
In short: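 After stress at 50°C, the amount of each protein still soluble was measured. This was done on pooled custom libraries of small protein domains, using high-throughput quantitative proteomics. The figure given is a base-two log fold change and stands for aggregation propensity, with higher values meaning more protein stays in solution.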

Sequence | soluble fraction (log2)
HMSASSEALKTAVRKVLLNNRMTQDRMARDAGLSGSALSQWLHGKYQGDVPALEGRLAAWLADTQAS | 0.0546
HMDKEIKILKEKRLDDVQQAIRELSPQKRRVVEMKLYHNSTNQEVADKLAISVNTVKSLYTSALHDLRRIL | -0.139
HMSWGDVKLTMWGAEEDQTMLREMADAFIEQNADKGNVTIEIGVQSESSAKDTVLADPESAADVFA | 0.00693
HMSLGSQEYSIGFRNGDSTYHYIDKALKELAYEGVIDELSTQWFGSSRAVDFPSQKDALSELGYIA | -0.0308
HMGNFFDSAILALKNAIQENYGGNVSQAARSLGISVPTLHTWIKGDRKPSLEKLSPILDALNAKIVL | -0.726
HMSAEKPVKSELFYKSMLNSFEQAVRFMIANGILEDFKSRIVAINNETNHQNWFNKQEFNAIIERF | -0.449
HMESYTGLAVTEDDDGWSNVRSGNSTSYSILFKIYAGEKFNILSNDGKWSYIDFNGRKGYIHNSIIRKY | -3.87
HMLEQLTPRELKVLQALAQGRQNKEIAAQLVISERTVKFHVSAILSKLNVGNRTEAVTVAAQRGLISL | -1.03
HMEVALEVPELRGLSMKQATNTLMASGFEVQKVGSGTIYAQFPLPGERLRTGYAVTIRGKTRDLG | -0.258
HMANWRVGQTINALVSDRMPSGGLLLTVGRQSFVTTRDIPVQPGARIMLEVQQVEPKLVLRLVSA | -1.17
HMHDPRLPLPGTLLAREFQGRDIVVKVLDNGFEFDGRRYKSLSAIAQEVTGSKWNGFLFFGI | -0.857
HMNLVGGKINSLMTTKNVTIQDLSERSGLTVSQIELLLSGDKVPSLAVLIKIARGLGVRVGTFL | -1.3
HMRRIADVVPEQLTREEAEELLETLAEQGEIHEEQALLARYILEQSLQGVAPEVEPLIRAKLLAGILMVY | -1.69
HMYYTAPDGRKREILDAALRLIAAGGPDSLTYRRVADEAGVPLGSLTYYFEAREDLIREAFRLYIAEASR | -3.04
HMFNDPTMEDALVNLKGITNEVLSYLSSSKIKKLEELAEMSVPELKDIVENISDDEASALIMEARKPWF | -0.113
HMDSVAKSFLAEIERFLETAGLEPTTLGKQALGDPSFVFDLRKGRSPSTRTIGKLRVWMQQQNALS | -1.2
HMEGLESVVPDLRGKSLKSAAIAAGLSGFALSPEGSGIVYKQSPAPGGRYLKGTLIAVWLRT | -0.513
HMIPLSDEETILLKLLEATETHLDALIRGSQLSAAKVSVVLMGMEMKRLVKRLPGQMYQRWD | -1.84
HMDVQTVTVIENVNVRKSASENGQKLGLAYTGEKLELLMKQADGWTRVKYNGETAYVKSDYV | -0.00354
HMERKMKNNISDQTTYDTDKILNFNGKGYLNGLVIPNNYQIKEEGYYVFRQVALDGREQILYFTIQDLS | -1.96
HMQTGRREALEAQLRETGGEAMLARLREIDPEAAARLHPADEKRVIRALEVYEETGKTITQHNLETKAVPP | 0.239
HMPPHGHIVELLPEQDFGRIETGDGRLVYFHRNSVLDGDFAQLAVGDAVRFAEEMGERGPQASSVHVE | 0.0967
HMTFTQFAESHGVIIKSLKASDKIQRGPTVAHPKSDNGAWLWDGNRGGVMAWDGDGQWYWFK | -1.95
HMVNHVGITVSNLERSIQFYEALTGKKIANQDTIGGKRMAQTQGLADTLIKYANLHLDNLNIDLLEYVE | -0.386
HMKEILLITGKGLHSGQDDVYKSAQLSKLRYSVPEFIKSNLEISQLILSVETPLQKDGGDGALLIK | 0.13
HMLNWINSDVLERFNSLTKEKQKAIVADTETRLNGLSQARFKVAKSSSNERLIAEFAIEINEAIMRAAAL | -1.49
HMPIPIESEISRSPGQSIYAFVQQHYGRSGRSPADMRALVGLILRLNRQIRTPLLIPFGLVVVRPT | -0.0619
HMHNLYAPTQKEVDHARRVVEAAEAAAREGLGVVSLNGKMVDGPVIDRARLVLSRAELSGIRE | 0.072

Sequence | soluble fraction (log2)
HMGGGVERLTPRQREVLGYMAEGRSNSWIAGAIGFSEKAVVQHTSKIYDALGLAVDADDHRRVLAVLRYLT | -1.44
HMSINQIADKGYITRLIDNNANIKDVLYYDASSRILAIEDPKYMFYLKNTDWNQFAKEMGFKLE | -0.657
HMRGQLADLWLPREQARRAAEIVAARPVPLGSVKTWIARGKLAPRKTGTGPALYRVGALVSLLAKS | -1.67
HMYYNDEELDGYRGTPSDAYSDNAVEEFREVLYTLREDEVSGWVRSLQLRGIFLPDAIKDETFLI | -1.59
HMRLMLITPTEFDEAAEIADNLKDRRAVLMNVEKTDNETARRLIDFLSGVVYALGGKIMRISAQAYVLT | -0.236
HMPREQQENVYLLEKAKRLYEEYLGDQRQTIGHALAQFERVLESQDPAAIRRAQKEFGEFLERYDG | 0.102
HMGAAITEAEAKQIALDHAGVSESETERMRVKLGRDDGVQEYEVNFYVGNREYDYDINAATGEIRSHDSE | 0.0811
HMSAGYTYQNYQQDLKSGNVQNIHIYLSEEMYSGNVKVIYKNNKSVTFTVTDVTIAEAEARQVGISPIIYE | -0.1
HMAEPLEIGDTVRIIDGFYGGEIGVISELVNPDAKNAEFEQVRVRLDQDTELALPIHNVERVRL | 0.25
HMDPTLFRLNILEGLGLEKKNLTSEEQEQLRFLYEHFSMKEILMTIDYIKKLNLEKSIVNLYRLMQHP | -0.0621
HMTWIAEIELRLMGNGAVTGAKIVKSTDLKDVDAAIYRAALEASPYPAPESGIGGRFTIKLKY | 0.198
HMQFETVQDAFNHYRNASLEEIESRAAEIKGIIESDPEADVRALNIEIEGLHQAKQNILEKQKTK | -0.0753
HMENVRKTEWVTISNDKSQTRTTVYFESGNQKLDKHPQIQGFEYQRTYVEGGVKYYLFVEKGTKLDE | -0.166
HMEQPPVPSVSITAALGSAVARRLAPHGFQKMPDLVDAYRAGKLAQISGIGGTTLDLIREWLTANARQQ | 0.0154
HMPINPKVKQIYDTLKDGGADVGSEKEFNDYFFAKGKDGYNNRKEVFNTLREGGADAGKSYEEFAGWLGL | 0.362
HMGQAVTMLKAGRLLANAKGTGAPVRSLEPGMLLYPTGVKEGTMWEVEDEMGNKGWVNSTLMETA | -0.212
HMDKAALGQKLRQARLDKGYTQQSLSEKADIGEVYLSEIERGLKMPSMNLFIKLITALDISADYILR | -1.44
HMFDEDKLIISIGSKVRIIREPYFGTIGKVVELPPELVKMDTEAMLRVAIIKLDDGEKVTIPRANLEVILS | -1.22
HMTQTGEVIRWDAERGFGFIATADGRRHVFFHVRDFRGGAAPGVGLRVGFEEIQVGGKGPRAMDVRPL | -0.48
HMAPKVHLLKVPVDKIREIIGTGGKVIRQITEETGAKIDISDDGSVKVSSPDQSSIDAATTWITGIIAE | 0.0652
HMSVDIIPGKADQKVRLIHDPAIVGVTTGGVKTAGPHTLIQIELGPNERPYKRLSLLELIPEG | -0.115
HMKTGIIYGVNGPVIYLKGDTGFKISEMVYVGPEKLVGEVIGLKKHMTTVQVFEETTGLKPGETVIGTGDA | -0.486
HMSDNYYSILGIETDATTDMIKRAYRRLSLELHPDRTKDNPILTEKYKKVNEAYGVLNDNDRKHIYDLQNI | -0.216
HMLIADADSLRKQIETVLANAPNEVAAYRGGKETLMGWFVGQIMRATGGKADPKLTREILAELLQ | 0.00102
HMISDDLYQAVLDFTLTQDTISISRLQQNFNLGWPRARQLYDQLMQNGIIEPPDEANSAKGAVVIANKRG | 0.46
HMDTFEITVEESDIDKRIDLFLAGNLESFSRSYIQDLIKKGKATISGKPVKANYRLREGDSVVLSIPKPK | -0.227
HMAQISDEGLLRGLIVEMFEANPAVVEELLGGRDRKKGFVIGQIMKKTKGMANPALLDQLFYEELEKL | -0.867
